The values that follow come from paper PMC5895748.

The test concerns the target human Toll-like receptor 5 (hTLR5) (human) (UniProt O60602).
Sequence of UniProt O60602 (O60602 21-858): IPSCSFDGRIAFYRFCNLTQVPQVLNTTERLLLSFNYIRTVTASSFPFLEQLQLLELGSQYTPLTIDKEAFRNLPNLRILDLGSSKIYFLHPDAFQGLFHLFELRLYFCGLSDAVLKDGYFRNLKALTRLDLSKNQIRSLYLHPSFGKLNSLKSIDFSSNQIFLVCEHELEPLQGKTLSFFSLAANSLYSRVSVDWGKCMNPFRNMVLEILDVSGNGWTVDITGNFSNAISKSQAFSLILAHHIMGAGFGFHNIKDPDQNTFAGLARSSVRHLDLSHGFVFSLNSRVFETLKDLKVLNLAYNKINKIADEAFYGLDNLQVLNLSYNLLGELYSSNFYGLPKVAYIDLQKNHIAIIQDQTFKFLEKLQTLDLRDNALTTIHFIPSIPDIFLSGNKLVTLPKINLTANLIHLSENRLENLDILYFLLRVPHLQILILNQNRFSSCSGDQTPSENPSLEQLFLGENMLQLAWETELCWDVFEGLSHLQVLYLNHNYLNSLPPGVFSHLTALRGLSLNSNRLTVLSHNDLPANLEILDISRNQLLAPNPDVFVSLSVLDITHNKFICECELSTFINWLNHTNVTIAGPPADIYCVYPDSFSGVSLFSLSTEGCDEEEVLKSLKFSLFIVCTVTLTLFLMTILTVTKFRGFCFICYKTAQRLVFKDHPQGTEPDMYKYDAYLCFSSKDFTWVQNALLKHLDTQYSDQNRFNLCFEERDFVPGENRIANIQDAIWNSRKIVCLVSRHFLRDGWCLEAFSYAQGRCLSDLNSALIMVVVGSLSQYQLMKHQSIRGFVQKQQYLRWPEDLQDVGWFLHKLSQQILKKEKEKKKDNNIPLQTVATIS
For “BcFlg^mF, T4 lysozyme inserted into BcFlg residues 178-180”, the EC50 of TLR5 stimulation, HEK293blue-hTLR5 reporter cells (NF-kB-inducible SEAP) is 1.4 pM and the EC50 of TLR5 stimulation, HEK293blue-hTLR5 reporter cells (SEAP); protein incubated at 37 °C for 24 hours before the assay was 2.4 pM.

As for “Bacillus cereus flagellin BC1658 (BcFlg) (natural protein)”, the EC50 of TLR5 stimulation, HEK293blue-hTLR5 reporter cells (NF-kB-inducible SEAP) came out at 1.7 pM and the EC50 of TLR5 stimulation, HEK293blue-hTLR5 reporter cells (SEAP); protein incubated at 37 °C for 24 hours before the assay worked out at 1.9 pM.

In the case of “BcFlg^cF, T4 lysozyme fused to the C-terminal end of BcFlg”, the EC50 of TLR5 stimulation, HEK293blue-hTLR5 reporter cells (NF-kB-inducible SEAP) was found to be 2.3 pM and the EC50 of TLR5 stimulation, HEK293blue-hTLR5 reporter cells (SEAP); protein incubated at 37 °C for 24 hours before the assay was 129 pM.

As for “BcFlg^nF, T4 lysozyme fused to the N-terminal end of BcFlg”, the EC50 of TLR5 stimulation, HEK293blue-hTLR5 reporter cells (NF-kB-inducible SEAP) came out at 44.2 pM.

Take “Bacillus cereus flagellin BC1659 (natural protein)”: the EC50 of TLR5 stimulation, HEK293blue-hTLR5 reporter cells (NF-kB-inducible SEAP) is 55.4 pM.
